Results reported in patent US12617870B2, “Methods of reversing ticagrelor activity” (SFJ Pharmaceuticals X, LTD., priority 2018, dated 2026).
“And” between values parts separate entries of the source, which are not always exact repeats. Identical values can stand only once. “Also recorded” adds a separate entry of the source.

Tests used:
[1] = Phase 1 healthy volunteer study: pharmacokinetics of PB2452; format: in vivo, human
Description: Plasma Collection: Blood samples for PK analysis of PB2452 in plasma will be collected from all subjects at the following time points: before dosing (within 10 minutes prior to the initiation of study drug infusion and up to 28 days after the initiation of study drug infusion. Specific collection times for each cohort are listed in the table below: […]

P2Y12 receptor signaling = assay: Phase 1 healthy volunteer study: VASP phosphorylation ELISA (PRI); conditions: human, in vivo
Excerpt: Secondary Objectives: 1) To determine the pharmacokinetics of ascending doses of IV PB2452 in the presence and absence of ticagrelor; 2) To determine the pharmacokinetics of ticagrelor and its active metabolite TAM in the presence and absence of PB2452; 3) To assess the effectiveness of a single IV PB2452 dose in reversing ticagrelor antiplatelet activity by measuring P2Y12 reaction units (PRU) with VerifyNow™ P2Y12 assay and platelet reactivity index (PRI) with vasodilator stimulated phosphoprotein (VASP) phosphorylation assay by enzyme-linked immunosorbent assay (ELISA); 3) To evaluate the pharmacokinetics and pharmacodynamics of restarting a single dose of oral ticagrelor 24 hours after IV PB2452 administration if a sixth dose of ticagrelor is given; 4) To evaluate the immunogenicity potential of PB2452
VASP by ELISA: 1) PRU at each assessment point; 2) Percent of baseline in PRU; 3) Maximal PRU; 4) Time to maximal PRU; 5) Time to 60%, 80%, 90% of baseline PRU
(§1) The primary efficacy outcome was the effectiveness of PB2452 in reversing the antiplatelet effect of ticagrelor by analyzing platelet aggregation using light transmission aggregometry at multiple time points before and after PB2452 or placebo administration in ticagrelor pretreated subjects. Secondary efficacy outcomes were the effectiveness of ticagrelor reversal assessed using VerifyNow and the vasodilator stimulated phosphoprotein phosphorylation immunoassay (VASP).

[2] = system: platelet reactivity (VerifyNow P2Y12); assay: Phase 1 healthy volunteer study: VerifyNow P2Y12 platelet reactivity (PRU); format: in vivo, human; conditions: sustained for 24 hours
Excerpt: Secondary Objectives: 1) To determine the pharmacokinetics of ascending doses of IV PB2452 in the presence and absence of ticagrelor; 2) To determine the pharmacokinetics of ticagrelor and its active metabolite TAM in the presence and absence of PB2452; 3) To assess the effectiveness of a single IV PB2452 dose in reversing ticagrelor antiplatelet activity by measuring P2Y12 reaction units (PRU) with VerifyNow™ P2Y12 assay and platelet reactivity index (PRI) with vasodilator stimulated phosphoprotein (VASP) phosphorylation assay by enzyme-linked immunosorbent assay (ELISA); 3) To evaluate the pharmacokinetics and pharmacodynamics of restarting a single dose of oral ticagrelor 24 hours after IV PB2452 administration if a sixth dose of ticagrelor is given; 4) To evaluate the immunogenicity potential of PB2452 […]
as §1

[3] = system: platelet aggregation (ticagrelor antiplatelet activity); format: in vivo, human
Description: Platelet function was assessed using light transmission aggregometry (LTA), VerifyNow, and vasodilator stimulated phosphoprotein (VASP) assays before and after 48 hours of ticagrelor administration […] Cohorts 7 to 10 received an 18-gram fixed dose of PB2452 via various infusion regimens or placebo. Infusions of PB2452 in these cohorts were initiated 2 hours after the last ticagrelor pretreatment dose to coincide with the peak concentration of ticagrelor. (Gurbel (2009). Subjects in all cohorts were randomized in a 3:1 ratio to receive PB2452 or placebo. The primary efficacy outcome was the effectiveness of PB2452 in reversing the antiplatelet effect of ticagrelor by analyzing platelet aggregation using light transmission aggregometry at multiple time points before and after PB2452 or placebo administration in ticagrelor pretreated subjects. Secondary efficacy outcomes were the effectiveness of ticagrelor reversal assessed using VerifyNow and the vasodilator stimulated phosphoprotein phosphorylation immunoassay (VASP). The sample size of 64 was based on clinical and practical considerations and not on a formal statistical power calculation. The sample size was considered sufficient to adequately assess the safety, efficacy, and pharmacokinetic profiles of PB2452 and the pharmacokinetic and pharmacodynamic profiles of ticagrelor. Reversal of antiplatelet effect was evaluated by comparing the mean percent of baseline platelet aggregation between PB2452 and placebo using Wilcoxon rank-sum test. Multiplicity was adjusted using the Bonferroni method. Correlations between each pair of the platelet function tests were evaluated using Pearson's correlation and Spearman's rank correlation coefficient. Mean data from subjects receiving placebo were pooled across cohorts for all presentations. Categorical variables are summarized by their frequencies and percentages, and continuous variables are presented with the number of subjects with non-missing data, mean, standard deviation, median, minimum, and maximum. Descriptive statistics are presented for each cohort, and pooled placebo and PB2452 data. For pharmacodynamic data, platelet aggregation results were compared between each cohort and pooled placebo data (cohorts 4 to 6 and cohort 7 to 10 were pooled separately). All analyses were performed with SAS software, version 9.4 (SAS Institute).

[4] = Phase 1 healthy volunteer study: safety, treatment-emergent adverse events; format: in vivo, human
Excerpt: Safety Assessments: Safety and tolerability will be assessed by monitoring and recording of AEs, clinical laboratory test results (hematology, coagulation, serum chemistry, and urinalysis), vital sign measurements (systolic and diastolic blood pressures, oral body temperature, respiratory rate, and heart rate), 12-lead ECG results, cardiac telemetry monitoring, immunogenicity, and physical examination findings.
(§2) The primary safety outcome was the frequency and severity of treatment emergent adverse events (AEs) associated with PB2452 with or without oral ticagrelor pretreatment. Clinical laboratory test results, vital sign measurements, 12-lead ECG and continuous telemetry results, and physical examination findings were also assessed at multiple timepoints from screening to the end of the 28-day safety follow-up period. Immunogenicity was assessed before and at 7 and 28 days after PB2452 administration.

[5] = Phase 1 healthy volunteer study: immunogenicity (anti-drug antibodies); format: in vivo, human
Description: as §2
Other secondary outcomes included assessment of the PB2452 and ticagrelor pharmacokinetic profiles and evaluation of PB2452 immunogenicity at day 7 and 28 post-infusion.

[6] = of the 48 subjects given PB2452

B1: PB2452: recombinant human IgG1λ monoclonal Fab antibody fragment that binds specifically to ticagrelor and TAM (antibody, listed as Homo sapiens)
heavy: QVQLQESGAEVKKPGSSVRVSCKASGGTFDSYSIHWVRQAPGQGLEWMGGIIPAFGTLSSAQDFQARVTISADKSTSTAYMELSGLRSEDTAVYYCARGSFDYYFWSASHPPNDALAIWGQGTLVTVSSASTKGPSVFPLAPSSKSTSGGTAALGCLVKDYFPEPVTVSWNSGALTSGVHTFPAVLQSSGLYSLSSVVTVPSSSLGTQTYICNVNHKPSNTKVDKRVEPKSCDK
light: QSVVTQPPSVSAAPGQKVTISCSGSNSDIGNNYVSWYQQLPGTAPKLLIYDNNKRPSGIPDRFSGSKSGTSATLAITGLQAGDEADYYCGTWLYDRAVGLFGGGTKVTVLGQPKAAPSVTLFPPSSEELQANKATLVCLISDFYPGAVTVAWKADSSPVKAGVETTTPSKQSNNKYAASSYLSLTPEQWKSHRSYSCQVTHEGSTVEKTVAPTECS
modifications: PB2452 VH with CH1; PB2452 VL with CL
What does the source list for B1?
PB2452 exposure extended for ([1]; 18 gram dose level with 8- to 16-hour infusions): 12 to 24 h; estimated distribution half-life ([1]; IV, healthy subjects): 0.86 h; estimated terminal half-life ([1]; IV, healthy subjects): 6.9 h; volume of distribution ([1]; IV, healthy subjects): approximately 2.9 L; dose dependence of mean exposure ([1]; dose range of 0.1 to 9.0 grams): dose-linear increases in mean exposure; VASP PRI restored, relative to baseline (P2Y12 receptor signaling): ~100 % of baseline; duration of restored VASP PRI (P2Y12 receptor signaling): 20 to 24 h; time to restoration of VASP PRI (P2Y12 receptor signaling): ≤ 5 min; mean VerifyNow platelet reactivity [2]: ≥ 180 PRU; time to complete restoration of platelet function ([3]; 3 g or 9 g PB2452 IV over 30 minutes): ≤ 30 min; reversal sustained for ([3]; 10-minute IV bolus followed by 16-hour infusion, multiple assays): over 20 hours; onset of reversal ([3]; 10-minute IV bolus followed by 16-hour infusion, multiple assays, vs placebo P<0.0001): ≤ 5 min; time to significantly increased mean platelet aggregation ([3]; Cohort 7, 18 g: 3.0 g bolus followed by 8 hour infusion): ≤ 2 h; time to reversal after initiation of the infusion ([3]; Cohorts 8 to 10, 18 g: 6.0 g bolus followed by infusions for 12 or 16 hours): ≤ 5 min; mean platelet aggregation restored, relative to pre-ticagrelor baseline ([3]; LTA, all post-treatment time points up to 20 hours): ≥ 80 % of baseline; rebound in platelet activity after drug cessation ([3]; human, in vivo): no evidence of rebound; overall safety and tolerability ([4]; 0.1 to 18 g IV, healthy subjects): safe and well-tolerated; Number of Subjects with at Least 1 TEAE ([4]; All PB2452 (N = 48)): 17 (35.4%) n (%) and 17 (35.4) n (%); Total Number of TEAEs ([4]; All PB2452 (N = 48)): 27; Abdominal pain ([4]; TEAE, All PB2452 (N = 48)): 1 (2.1) n (%); Acute respiratory failure ([4]; TEAE, All PB2452 (N = 48)): 1 (2.1) n (%); Alcohol poisoning ([4]; TEAE, All PB2452 (N = 48)): 1 (2.1) n (%); Blood urine present ([4]; TEAE, All PB2452 (N = 48)): 1 (2.1) n (%); Conjunctivitis ([4]; TEAE, All PB2452 (N = 48)): 1 (2.1) n (%); Contusion ([4]; TEAE, All PB2452 (N = 48)): 0 n (%); Dizziness ([4]; TEAE, All PB2452 (N = 48)): 1 (2.1) n (%); Eyelid irritation ([4]; TEAE, All PB2452 (N = 48)): 0 n (%); Gastroenteritis ([4]; TEAE, All PB2452 (N = 48)): 1 (2.1) n (%); Hematuria ([4]; TEAE, All PB2452 (N = 48)): 1 (2.1) n (%); Infusion site bruising ([4]; TEAE, All PB2452 (N = 48)): 4 (8.3) n (%); Infusion site extravasation ([4]; TEAE, All PB2452 (N = 48)): 2 (4.2) n (%); Infusion site reaction ([4]; TEAE, All PB2452 (N = 48)): 1 (2.1) n (%); Medical device site reaction ([4]; TEAE, All PB2452 (N = 48)): 3 (6.3) n (%); Musculoskeletal chest pain ([4]; TEAE, All PB2452 (N = 48)): 0 n (%); Nasopharyngitis ([4]; TEAE, All PB2452 (N = 48)): 1 (2.1) n (%); Oropharyngeal pain ([4]; TEAE, All PB2452 (N = 48)): 1 (2.1) n (%); Pharyngitis streptococcal ([4]; TEAE, All PB2452 (N = 48)): 1 (2.1) n (%); Pneumonia aspiration ([4]; TEAE, All PB2452 (N = 48)): 1 (2.1) n (%); Skin abrasion ([4]; TEAE, All PB2452 (N = 48)): 1 (2.1) n (%); Upper limb fracture ([4]; TEAE, All PB2452 (N = 48)): 1 (2.1) n (%); Vessel puncture site bruise ([4]; TEAE, All PB2452 (N = 48)): 2 (4.2) n (%); deaths or adverse events leading to study drug discontinuation ([4]; human, in vivo): no deaths or adverse events leading to study drug discontinuation; drug-related adverse events ([4]; human, in vivo): no drug-related adverse events; also recorded: None of the adverse events was considered related to study drug; study-drug related serious adverse events, dose-limiting toxicities, infusion-related reactions ([4]; human, in vivo): no study-drug related serious adverse events, dose-limiting toxicities, or infusion-related reactions; also recorded: no serious adverse events or infusion reactions associated with PB2452; effect of antibody titers on PB2452 safety or efficacy ([5]; human, in vivo): no observed effect; subjects anti-drug antibody positive post-dosing [5, 6]: 6 (12.5%) subjects (%); subjects with detectable anti-drug antibodies [5, 6]: 21 (43.8%) subjects (%); subjects with pre-existing (pre-dose) antibodies [5, 6]: 15 (31.3%) subjects (%)
